First the molecules themselves.
B1: Hu14G12-33 (antibody, V domains shown)
VH: QVQLVQSGAEVKKPGASVKVSCKASGYAFSSSWMNWVRQAPGQGLEWMGRIYREDGHTNYNGKFKGRVTMTADKSTTTAYMELSSLRSEDTAVYYCANGGAMDYWGQGTLVTVSS
VL: DIQMTQSPSSLSASVGDRVTITCRASQDISNYLNWYQQKPGKAPKLLIYYTSRLHSGVPSRFSGSGSGTDYTFTISSLQPEDIATYFCQQDNTLPWTFGGGTKVEIK
notes: humanized
B2: Hu14G12-22 (antibody, V domains shown)
VH: QVQLVQSGAEVKKPGSSVKVSCKASGGTFSSSWMNWVKQAPGQGLEWIGRIYREDGHTNYNGKFKGRATITADKSTSTAYMELSSLRSEDTAVYFCANGGAMDYWGQGTTVTVSS
VL: DIQMTQSPSSLSASVGDRVTITCRASQDISNYLNWYQQKPGKVPKLLIYYTSRLHSGVPSRFSGSGSGTDYTLTISSLQPEDVATYFCQQDNTLPWTFGGGTKLEIK
notes: humanized
B3: Hu14G12-21 (antibody, V domains shown)
VH: QVQLVQSGAEVKKPGSSVKVSCKASGGTFSSSWMNWVKQAPGQGLEWIGRIYREDGHTNYNGKFKGRATITADKSTSTAYMELSSLRSEDTAVYFCANGGAMDYWGQGTTVTVSS
VL: DIQMTQSPSSLSASVGDRVTITCRASQDISNYLNWYQQKPGKVPKLLIYYTSRLHSGVPSRFSGSGSGTDFTLTISSLQPEDVATYYCQQDNTLPWTFGGGTKLEIK
notes: humanized
B4: Hu14G12-20 (antibody, V domains shown)
VH: QVQLVQSGAEVKKPGSSVKVSCKASGGTFSSSWMNWVKQAPGQGLEWIGRIYREDGHTNYNGKFKGRATLTADKSTSTAYMELSSLRSEDTAVYFCANGGAMDYWGQGTTVTVSS
VL: DIQMTQSPSSLSASVGDRVTITCRASQDISNYLNWYQQKPGKVPKLLIYYTSRLHSGVPSRFSGSGSGTDYTLTISSLQPEDVATYFCQQDNTLPWTFGGGTKLEIK
notes: humanized
B5: Hu14G12-19 (antibody, V domains shown)
VH: QVQLVQSGAEVKKPGSSVKVSCKASGGTFSSSWMNWVKQAPGQGLEWIGRIYREDGHTNYNGKFKGRATLTADKSTSTAYMELSSLRSEDTAVYFCANGGAMDYWGQGTTVTVSS
VL: DIQMTQSPSSLSASVGDRVTITCRASQDISNYLNWYQQKPGKVPKLLIYYTSRLHSGVPSRFSGSGSGTDFTLTISSLQPEDVATYYCQQDNTLPWTFGGGTKLEIK
notes: humanized
B6: Hu14G12-35 (antibody, V domains shown)
VH: QVQLVQSGAEVKKPGASVKVSCKASGYAFSSSWMNWVRQAPGQGLEWMGRIYREDGHTNYNGKFKGRVTMTADKSTTTAYMELSSLRSEDTAVYYCANGGAMDYWGQGTLVTVSS
VL: EIVMTQSPATLSLSPGERATLSCRASQDISNYLNWYQQKPGQAPRLLIYYTSRLHSGIPARFSGSGSGTDYTLTISSLEPEDIAVYFCQQDNTLPWTFGGGTKVEIK
notes: humanized
B7: Hu14G12-36 (antibody, V domains shown)
VH: QVQLVQSGAEVKKPGASVKVSCKASGYAFSSSWMNWVRQAPGQGLEWMGRIYREDGHTNYNGKFKGRVTMTADKSTTTAYMELSSLRSEDTAVYYCANGGAMDYWGQGTLVTVSS
VL: DIVMTQSPDSLAVSLGERATINCRASQDISNYLNWYQQKPGQPPKLLIYYTSRLHSGVPDRFSGSGSGTDYTLTISSLQAEDIAVYFCQQDNTLPWTFGGGTKVEIK
notes: humanized
B8: Hu14G12-17 (antibody, V domains shown)
VH: QVQLVQSGAEVKKPGSSVKVSCKASGGTFSSSWMNWVKQAPGQGLEWIGRIYREDGHTNYNGKFKGKATLTADKSTSTAYMELSSLRSEDTAVYFCANGGAMDYWGQGTTVTVSS
VL: DIQMTQSPSSLSASVGDRVTITCRASQDISNYLNWYQQKPGKVPKLLIYYTSRLHSGVPSRFSGSGSGTDFTLTISSLQPEDVATYYCQQDNTLPWTFGGGTKLEIK
notes: humanized
B9: Hu14G12-27 (antibody, V domains shown)
VH: QVQLVQSGAEVKKPGSSVKVSCKASGYAFSSSWMNWVRQAPGQGLEWMGRIYREDGHTNYNGKFKGRVTITADKSTTTAYMELSSLRSEDTAVYYCANGGAMDYWGQGTLVTVSS
VL: DIQMTQSPSTLSASVGDRVTITCRASQDISNYLNWYQQKPGKAPKLLIYYTSRLHSGVPSRFSGSGSGTEYTLTISSLQPDDIATYFCQQDNTLPWTFGGGTKVEIK
notes: humanized
B10: Hu14G12-31 (antibody, V domains shown)
VH: QVQLVQSGAEVKKPGASVKVSCKASGYAFSSSWMNWVRQAPGQGLEWMGRIYREDGHTNYNGKFKGRVTMTADKSITTAYMELSRLRSDDTAVYYCANGGAMDYWGQGTLVTVSS
VL: DIVMTQSPDSLAVSLGERATINCRASQDISNYLNWYQQKPGQPPKLLIYYTSRLHSGVPDRFSGSGSGTDYTLTISSLQAEDIAVYFCQQDNTLPWTFGGGTKVEIK
notes: humanized
B11: Hu14G12-45 (antibody, V domains shown)
VH: QVQLVQSGAEVKKPGASVKVSCKASGYAFSSSWMNWVRQAPGQGLEWMGRIYREDGHTNYNGKFKGRVTMTADKSTTTAYMELRSLRSDDTAVYYCANGGAMDYWGQGTLVTVSS
VL: EIVMTQSPATLSLSPGERATLSCRASQDISNYLNWYQQKPGQAPRLLIYYTSRLHSGIPARFSGSGSGTDYTLTISSLEPEDIAVYFCQQDNTLPWTFGGGTKVEIK
notes: humanized
B12: Hu14G12-40 (antibody, V domains shown)
VH: QVQLVQSGAEVKKPGASVKVSCKASGYAFSSSWMNWVRQAPGQRLEWMGRIYREDGHTNYNGKFKGRVTITADKSATTAYMELSSLRSEDTAVYYCANGGAMDYWGQGTLVTVSS
VL: EIVMTQSPATLSLSPGERATLSCRASQDISNYLNWYQQKPGQAPRLLIYYTSRLHSGIPARFSGSGSGTDYTLTISSLEPEDIAVYFCQQDNTLPWTFGGGTKVEIK
notes: humanized
B13: Hu14G12-26 (antibody, V domains shown)
VH: QVQLVQSGAEVKKPGSSVKVSCKASGYAFSSSWMNWVRQAPGQGLEWMGRIYREDGHTNYNGKFKGRVTITADKSTTTAYMELSSLRSEDTAVYYCANGGAMDYWGQGTLVTVSS
VL: DIVMTQSPDSLAVSLGERATINCRASQDISNYLNWYQQKPGQPPKLLIYYTSRLHSGVPDRFSGSGSGTDYTLTISSLQAEDIAVYFCQQDNTLPWTFGGGTKVEIK
notes: humanized
B14: Hu14G12-38 (antibody, V domains shown)
VH: QVQLVQSGAEVKKPGASVKVSCKASGYAFSSSWMNWVRQAPGQRLEWMGRIYREDGHTNYNGKFKGRVTITADKSATTAYMELSSLRSEDTAVYYCANGGAMDYWGQGTLVTVSS
VL: DIQMTQSPSSLSASVGDRVTITCRASQDISNYLNWYQQKPGKAPKLLIYYTSRLHSGVPSRFSGSGSGTDYTFTISSLQPEDIATYFCQQDNTLPWTFGGGTKVEIK
notes: humanized
B15: Hu14G12-25 (antibody, V domains shown)
VH: QVQLVQSGAEVKKPGSSVKVSCKASGYAFSSSWMNWVRQAPGQGLEWMGRIYREDGHTNYNGKFKGRVTITADKSTTTAYMELSSLRSEDTAVYYCANGGAMDYWGQGTLVTVSS
VL: EIVMTQSPATLSLSPGERATLSCRASQDISNYLNWYQQKPGQAPRLLIYYTSRLHSGIPARFSGSGSGTDYTLTISSLEPEDIAVYFCQQDNTLPWTFGGGTKVEIK
notes: humanized
B16: Hu14G12-42 (antibody, V domains shown)
VH: QVQLVQSGAEVKKPGASVKVSCKASGYAFSSSWMNWVRQAPGQRLEWMGRIYREDGHTNYNGKFKGRVTITADKSATTAYMELSSLRSEDTAVYYCANGGAMDYWGQGTLVTVSS
VL: DIQMTQSPSTLSASVGDRVTITCRASQDISNYLNWYQQKPGKAPKLLIYYTSRLHSGVPSRFSGSGSGTEYTLTISSLQPDDIATYFCQQDNTLPWTFGGGTKVEIK
notes: humanized
B17: Hu14G12-30 (antibody, V domains shown)
VH: QVQLVQSGAEVKKPGASVKVSCKASGYAFSSSWMNWVRQAPGQGLEWMGRIYREDGHTNYNGKFKGRVTMTADKSITTAYMELSRLRSDDTAVYYCANGGAMDYWGQGTLVTVSS
VL: EIVMTQSPATLSLSPGERATLSCRASQDISNYLNWYQQKPGQAPRLLIYYTSRLHSGIPARFSGSGSGTDYTLTISSLEPEDIAVYFCQQDNTLPWTFGGGTKVEIK
notes: humanized
B18: Hu14G12-34 (antibody, V domains shown)
VH: QVQLVQSGAEVKKPGASVKVSCKASGYAFSSSWMNWVRQAPGQGLEWMGRIYREDGHTNYNGKFKGRVTMTADKSTTTAYMELSSLRSEDTAVYYCANGGAMDYWGQGTLVTVSS
VL: DIQMTQSPSSLSASVGDRVTITCRASQDISNYLNWYQQKPGKAPKLLIYYTSRLHSGVPSRFSGSGSGTDYTLTISSLQPEDIATYFCQQDNTLPWTFGGGTKVEIK
notes: humanized
B19: Hu14G12-39 (antibody, V domains shown)
VH: QVQLVQSGAEVKKPGASVKVSCKASGYAFSSSWMNWVRQAPGQRLEWMGRIYREDGHTNYNGKFKGRVTITADKSATTAYMELSSLRSEDTAVYYCANGGAMDYWGQGTLVTVSS
VL: DIQMTQSPSSLSASVGDRVTITCRASQDISNYLNWYQQKPGKAPKLLIYYTSRLHSGVPSRFSGSGSGTDYTLTISSLQPEDIATYFCQQDNTLPWTFGGGTKVEIK
notes: humanized
B20: Hu14G12-24 (antibody, V domains shown)
VH: QVQLVQSGAEVKKPGSSVKVSCKASGYAFSSSWMNWVRQAPGQGLEWMGRIYREDGHTNYNGKFKGRVTITADKSTTTAYMELSSLRSEDTAVYYCANGGAMDYWGQGTLVTVSS
VL: DIQMTQSPSSLSASVGDRVTITCRASQDISNYLNWYQQKPGKAPKLLIYYTSRLHSGVPSRFSGSGSGTDYTLTISSLQPEDIATYFCQQDNTLPWTFGGGTKVEIK
notes: humanized

As a reminder, the EC50 is the concentration at which the effect is half-maximal.

For this assay, the target named is T1, human 5T4-His protein (human, UniProt Q13641 32-355).
T1 construct: also called recombinant 5T4 protein (human 5T4-his tag); human 5T4 protein; not shown: His tag
T1 sequence (looked up): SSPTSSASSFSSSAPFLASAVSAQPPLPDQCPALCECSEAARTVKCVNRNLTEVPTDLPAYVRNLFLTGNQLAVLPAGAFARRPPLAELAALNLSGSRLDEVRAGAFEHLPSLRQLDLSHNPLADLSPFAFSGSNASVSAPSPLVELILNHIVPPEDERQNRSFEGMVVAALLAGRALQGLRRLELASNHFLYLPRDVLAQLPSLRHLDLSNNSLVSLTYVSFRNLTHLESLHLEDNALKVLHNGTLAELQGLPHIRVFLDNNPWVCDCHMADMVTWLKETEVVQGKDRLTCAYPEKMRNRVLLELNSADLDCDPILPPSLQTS
As to the kind of experiment: ELISA, coated 5T4-His. The procedure: To evaluate the binding activity of 14G12 humanized antibodies to human 5T4, the 14G12 chimeric antibody along with 14G12 humanized mAbs were subjected to ELISA test.
Briefly, microtiter plates were coated with human 5T4-His protein at 1 μg/ml in PBS, 100 μl/well at 4° C. overnight, then blocked with […]. Serial dilutions of antibodies were added to each well and incubated for 1 hour at 37° C. The plates were washed with PBS/Tween and then incubated with Goat Anti-Human IgG-HRP for 30 mins at 37° C. After washing, the plates were developed with TMB substrate and analyzed by spectrophotometer at OD 450 nm. As shown in FIG. 10 and Table 6, most of the humanized antibodies bound to human 5T4 at high activity.
(In general: An ELISA detects its analyte on a solid surface through an enzyme-linked reagent.)
The molecule B1 yielded an EC50 of 11 ng/mL.
The figure for B2 is 450 ng/mL.
The figure for B3 is 400 ng/mL; for B4 it is 320 ng/mL.
Under B5 stands 400 ng/mL; under B6, 13 ng/mL; under B7, 6.8 ng/mL.
As for B8, the 50% effective concentration (EC50) turned out to be 520 ng/mL.
B9: the EC50 came out at 7.8 ng/mL.
B10 returned an EC50 of 8.4 ng/mL. The EC50 values of the last two molecules are within 1.5-fold of each other.
Under B11 stands 8.2 ng/mL; under B12, 28 ng/mL; under B13, 6.9 ng/mL.
Under B14 stands 6.4 ng/mL.
The figure for B15 is 6 ng/mL; for B16 it is 7.8 ng/mL.
Take B17: the EC50 was 10 ng/mL.
As for B18, a half-maximal effect (EC50) was put at 8.7 ng/mL.
The figure for B19 is 6.9 ng/mL.
Molecule B20 came in with an EC50 of 4.9 ng/mL.
